The text below walks through data of article PMC11915506.

Assay [1] has as its target Peltigera membranacea cyanobiont 210A (Pmc) TnsC (Peltigera membranacea cyanobiont 210A). Briefly: cryo-EM structure.
Assay [2] shares this target. Briefly: cryo-EM structure. This is another data set of the same source.

Where two headings read alike, the source gives them in different places.

In general, stoichiometry N refers to the number of molecules, sites or subunits per partner or assembly. On to “Peltigera membranacea cyanobiont 210A (Pmc) TnsC (natural protein)”, for which the stoichiometry N in assay [1] and in assay [2] was 7 in each case.
